We go through 30 sequences from the nanobody polyreactivity screen of Harvey et al. (2022).

The data set is described as follows: yeast display, Sf9 membrane polyspecificity reagent, FACS + sequencing; frameworks hold sequencing errors. The method in brief:
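Synthetic nanobody libraries on Saccharomyces cerevisiae BJ5465 were galactose-induced for 36–48 hours, stained 1 hour at 4 °C with 10% biotinylated, detergent-solubilized Sf9 membrane reagent and enriched on streptavidin microbeads. FACS then separated cells into low and high (top ~1%) gates by anti-HA (expression) and streptavidin (reagent binding) fluorescence. Genes were colony-PCR amplified, MiSeq 2 × 250 sequenced and CDR-length filtered. A clone's polyreactivity label is that of its gate of origin.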
Take “QVQLVESGGGLVQAGGSLRLSCAASGSTSESNAMGWYRQAPGKERELVAAIRSSGGGTYYADSVKGRFTISRDNAKNTVYLQMNSLKPEDTAVYYCAKDVPEDYEFYYWGQGTQVTVSS”: the “polyreactivity (PSR sort gate)” value is reported as “low polyreactivity”.

“QVQLVESGGGLVQAGGSLRLSCAASGSTSGKYGMGWYRQAPGKVRELVAGITKGGGGTYYADSVKGRFTISRDNAKNTVYLQMHSLKPEDTAVYYCAKYYGSGYYIYDYWGQGTQVTVSS”: the “polyreactivity (PSR sort gate)” value is “low polyreactivity”. Next, “QVQLVESGGGLVQAGGSLRLSCAASGSTSLSYVKGWYRQAPGKERELVATITSSGGSTYYADSVKGRFTISRDNAKNTDYLQMNSLKQEDPAVYYCNARSYIYPFSPTSYYRYYWGQGTQVTGSS”: “high polyreactivity”; “QVQLVESGGGLVQAGGSLRLSCAASGSTSNLYAMGWYIQAPGKERELVAAITSIDGGTYYADSVKGRFTISRDNAKNTVYLQMNSLKAEDTAVYYCNAEDRFFYWGGYDYWGQGTQVTVSS”: “low polyreactivity”. Turning to “QVQLVESGGGLVQAGGSLRLSCAASGSTSPDNAMGWYRPAQGKERELVAAISSGGYTYADSVKGRFTISRDNAKNTVYLQMNSLKPEDTSVYYCAKDDLYSPAAGGGYWGEGTQVTVSS”, the “polyreactivity (PSR sort gate)” value is on record as “low polyreactivity”. Consider “QVQLVESGGGLVQAGGSLRLSCAASGSTSPGYAMGWYRQAPGKERELVAAITFRGTRTYYADSVKGRFTISRDNAKNTVYLQMNSLKPEDTAVFYCNVVGYGPNRGRVDYWGQGTQVTVSS”, for which the “polyreactivity (PSR sort gate)” value is “high polyreactivity”. Next, “QVQLVESGGGLVQAGGSLRLSCAASGSTSPLYAMGWYRQAPGKERELVAAISWSTGSTYYADSVKGRFTISRDNAKNTVYLQMNSLKPEDTAVYYCAADYWFRYGTYEYWGQGTQVTVSS”: “high polyreactivity”. In the case of “QVQLVESGGGLVQAGGSLRLSCAASGSTSPNAMGWYRQAPGKERELVAAIWSGGTYYADSVKGRFTISRDNAKNTVYLQLNSLKPEDTAVYYCAVTGVYRGFRYGYLGQGTQVTVSS”, the “polyreactivity (PSR sort gate)” value was “low polyreactivity”. Next, “QVQLVESGGGLVQAGGSLRLSCAASGSTSQRNAMGWYRQAPGKERELVAAISRSGGSTSYADSVKGRFTISRDNAKNTVYLQMNSLKPEDTAVYYCNTDRRIYRVWYNYWGQGTQVTVSS”: “high polyreactivity”; “QVQLVESGGGLVQAGGSLRLSCAASGSTSRGYAMGWYRPAPGKERELVASITLSGGNTYYADSVKGRFTISRDSAKNTVYFQMYSLKPVDTAVYYCAADDRGSSYGHFTVEYGNWGQGTQVTVSS”: “low polyreactivity”. Next, “QVQLVESGGGLVQAGGSLRLSCAASGSTSRGYAMGWYRQAPGEERELVASITLSGGNTYYADSVKGRFTISRDNAKNTVYLQMNSLKPEDTAVYYCAADDRGSSYGHFTVEYGYWGQGTQVTVSS”: “low polyreactivity”; “QVQLVESGGGLVQAGGSLRLSCAASGSTSRYAMGWYRQAPGKERELVAAITRSGGTTYYADSVKGRFTISRDNAKNTVYLQMNSLKPEDTAVYYCATSDRQVKYDYWGQGTQVTVSS”: “low polyreactivity”. Turning to “QVQLVESGGGLVQAGGSLRLSCAASGSTSSVNAMGWYRQAPGKEREFVATISFGGGRRYYADSVKGRFTISRDNAKNTVYLQMNSLKPEDTAVYYCAAVGSRWFSQTWRDYWGQGTQVTVSS”, the “polyreactivity (PSR sort gate)” value is recorded as “high polyreactivity”. Regarding “QVQLVESGGGLVQAGGSLRLSCAASGSTSTYYAMGWYRQAPGKERELVATISSTGNTKYADSVKGRFTISRDNAKNTVYLQMNSLKPEDTAVYYCNKRRSARFSSWGRVSYDYWGQGTQVTVSS”, the “polyreactivity (PSR sort gate)” value is recorded as “high polyreactivity”.

For the sequence “QVQLVESGGGLVQAGGSLRLSCAASGSTSVGNAMGWSRQAPGKERELVAAISRIGGTTYYADSVKGRFTISRDNAKNTVYLQMNSLKPEDPAVYYCNVLKRYWSGRVDYWGQGTQVTVSS”, the “polyreactivity (PSR sort gate)” value is recorded as “high polyreactivity”.

Take “QVQLVESGGGLVQAGGSLRLSCAASGSTSVQYAMGWYRQAPGKERELVAAIDRSGGSTSYADSVKGRFTISRDNAKHTVYLQMNSLKPEDTAVYYCNADVHNRGWPYDYWGQGTQVTVSS”: the “polyreactivity (PSR sort gate)” value is “low polyreactivity”.

Take “QVQLVESGGGLVQAGGSLRLSCAASGSTSVTNAMGWYRQAPGKEREFVATINYSGTSTYYADSVKGRFTISRDNAKNTVYLQMNSLKPEDTAVYYCNAHDFGFYRFSLPGYDYWGQGTQVTVSS”: the “polyreactivity (PSR sort gate)” value is reported as “low polyreactivity”.

As to “QVQLVESGGGLVQAGGSLRLSCAASGSTSYPYAMGWYRQAPGKERELVATITSGGRTNYADSVKGRFTISRDNAKNTVYLQMNSLKPEDTAVYYCNARFYRWRSYGYDYWGQGTQVTVSS”, the “polyreactivity (PSR sort gate)” value is on record as “high polyreactivity”. In the case of “QVQLVESGGGLVQAGGSLRLSCAASGSTSYTNAMGWYRPAPGKERELVAGITRSGDSTYYADSVKGRFTISRDNAKNTVYLQMNSLKPEDTAVYYCAADIGDYWWGYYTGYYYWGQGTQVTVSS”, the “polyreactivity (PSR sort gate)” value is given as “high polyreactivity”. Consider “QVQLVESGGGLVQAGGSLRLSCAASGSTSYYYAMGWYRQAPGKERELVAAISYSGGRTYYADSVKGRFTISRDNAKNTVYLQMNSLKPEDTAVYYCAKTFRGQPYLRYRYYYWGQGTQVTVSS”, for which the “polyreactivity (PSR sort gate)” value was “high polyreactivity”.

As to “QVQLVESGGGLVQAGGSLRLSCAASGSTTHYYAMGWYRQAPGKEWELVASITWSVGSTYYADSVKGRFTISRDNAKNTVYLQMNSLKPEVTAVYYCAGRPFPRRYDYWGQGTQVTVSS”, the “polyreactivity (PSR sort gate)” value is on record as “low polyreactivity”.

In the case of “QVQLVESGGGLVQAGGSLRLSCAASGSTVGANAMGWYRQAPGKERELVATISSGGRTYYADSVKGRFTISRDNAKNTVYLQMNSLKPEDTAVYYCNAGADYTYVYISVYVLYDYWGQGTQVTVSS”, the “polyreactivity (PSR sort gate)” value was “low polyreactivity”.

For the sequence “QVQLVESGGGLVQAGGSLRLSCAASGSTVKYAMGWYRQAPGKDRELVASIRRSGGSTYYADSVKGRFTISRDNAMNTVYLQMNRLKPEDTAVYYCNARFPYNWRYDYWGQGTQVTVSS”, the “polyreactivity (PSR sort gate)” value is “high polyreactivity”.

In the case of “QVQLVESGGGLVQAGGSLRLSCAASGSTVPQYTMGWYRQAPGKERELVAAITKSGGSTYYADSVKGRFTISRDNAKNTVYLQMNSLKPEDTAVYYCNRRWGWRLYDYWGQGTQVTVSS”, the “polyreactivity (PSR sort gate)” value is “high polyreactivity”. Next, “QVQLVESGGGLVQAGGSLRLSCAASGSTVTYNTMGWYIQAPGKERELVAAISSGGSTYYADSVKGRFTISRDNAKNTVYLQMNSLKPEDTAVYYCAAEHYDYPYDYYCGQGTQVTVSS”: “high polyreactivity”; “QVQLVESGGGLVQAGGSLRLSCAASGSTVYHNAMGRYRQAPGKERELVAAITWSGSRTYYADSVKGRFTISRDNAKNTVYLQMNSLKPEDTAVYYCAARDYWGQGTQVTVSS”: “high polyreactivity”; “QVQLVESGGGLVQAGGSLRLSCAASGSTVYRYTMGWYRQAPGKERELVAAISRSGGRTYYADSVKGRFTISRDNAKNTVYLQMNSMKPEDTAVDYCNAEIAASAVQAQEGEFWGQGTQVTVSS”: “high polyreactivity”.

Turning to “QVQLVESGGGLVQAGGSLRLSCAASGSTVYTNAMGWYRQAPGKERELVAAISSSGDSTYYADSVKGRFTISRDNAKNTVYLQMNSLKPEDTAVYYCAADKYLSYDFWGQGTQVTVSS”, the “polyreactivity (PSR sort gate)” value is “low polyreactivity”.

In the case of “QVQLVESGGGLVQAGGSLRLSCAASGSTVYYNAMGWYRQAPGKEREFVAAINCRGGSTYYADSVKGRFTISRDNSKNTVYLQMNSLKPEDTAVYYCAAEEPSTYYYVRSGYDYHFWEMYSWGQGTQVTVSS”, the “polyreactivity (PSR sort gate)” value is reported as “low polyreactivity”. Next, “QVQLVESGGGLVQAGGSLRLSCAASGSTYAYDMGSYRQAPGKERELVAAISWDGGDTYYADSVKGRFTISRDNAKNTVYLQMNSLKPEDTAVYYCNTVFQRSGYAAGVDYWGQGTQVTVSS”: “high polyreactivity”.
